In publication PMC5772552:

Tests used:
Assay in all cases: ELISA; semi-quantitative; plate coated with 30 nM protein (GST-tagged cohesin) in 0.1 M Na2CO3 pH 9.6 at 4 °C; His6-tagged dockerin 10 pM-1 μM in TBS with 1 mM CaCl2 and 1% BSA, 1 h, room temperature; anti-6xHis and HRP secondary antibody; fit with Hill equation
[1] = target: BSA (bovine (from the name BSA)) (UniProt P02769)
[2] = target: GST-Coh1 (from plasmid pGEX-Coh1) (Clostridium thermocellum)
[3] = target: GST-Cohwt (from plasmid pGEX-Cohwt) (Clostridium thermocellum) (UniProt Q06851)

Chain of UniProt P02769 (P02769 25-607): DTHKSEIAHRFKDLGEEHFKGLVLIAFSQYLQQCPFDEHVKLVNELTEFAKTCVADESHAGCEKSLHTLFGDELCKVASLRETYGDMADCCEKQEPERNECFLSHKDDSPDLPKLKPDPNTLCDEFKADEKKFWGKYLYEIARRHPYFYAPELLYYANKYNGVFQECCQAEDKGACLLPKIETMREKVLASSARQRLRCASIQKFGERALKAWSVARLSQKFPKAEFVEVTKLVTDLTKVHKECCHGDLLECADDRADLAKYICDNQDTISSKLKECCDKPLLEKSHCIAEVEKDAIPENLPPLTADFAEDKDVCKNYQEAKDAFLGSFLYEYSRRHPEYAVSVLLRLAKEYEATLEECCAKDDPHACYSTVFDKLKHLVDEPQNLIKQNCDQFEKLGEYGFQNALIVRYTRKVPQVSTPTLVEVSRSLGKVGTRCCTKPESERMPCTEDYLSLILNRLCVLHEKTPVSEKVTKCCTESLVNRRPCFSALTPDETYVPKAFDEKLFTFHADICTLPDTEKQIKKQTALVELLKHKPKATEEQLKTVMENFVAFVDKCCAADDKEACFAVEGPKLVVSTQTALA

Kd [1]: > 1000 nM | Kd [2]: > 500 nM | Kd [3]: 0.77 nM
Substance: MBP-X6b-Docwt-His6 (from plasmid pMAL-Docwt) (from UniProt P51584 733-791) (domain or fragment)
